Data from publication PMC9964254, “Caspase Inhibition Modulates Monocyte-Derived Macrophage Polarization in Damaged Tissues” (International Journal of Molecular Sciences, 2023).

Biological target: T1, p47^PHOX (83-390) (UniProt P14598 83-390)
T1 construct: p47^PHOX residues 83-390 (the first 82 amino acids deleted from the GST-p47^PHOX construct); Made from the GST-p47^PHOX construct (pGEX-6P-3); also called truncated p47^PHOX; p47^PHOX truncated at position 82; source: E. coli (BL21), purified with glutathione sepharose beads
T1 sequence (looked up): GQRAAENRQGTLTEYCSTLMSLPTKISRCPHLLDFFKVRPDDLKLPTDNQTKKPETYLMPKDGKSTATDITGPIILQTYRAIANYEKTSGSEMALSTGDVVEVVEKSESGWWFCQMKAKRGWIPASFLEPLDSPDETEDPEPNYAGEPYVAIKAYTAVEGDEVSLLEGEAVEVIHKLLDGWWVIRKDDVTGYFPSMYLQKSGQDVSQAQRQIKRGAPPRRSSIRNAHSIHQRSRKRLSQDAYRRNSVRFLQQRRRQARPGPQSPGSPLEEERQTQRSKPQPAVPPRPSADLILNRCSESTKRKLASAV
Test: pull-down; 214 nM p47^PHOX proteins with 286 nM GST or GST-p22^PHOX (132-195), 30 min at 4 °C in PBS pH 7.4, 0.1% Triton X-100; glutathione sepharose beads 1 h at 4 °C, eluted with 10 mM glutathione, immunoblot with anti-p47^PHOX
Conditions: both partners purified

B1: GST-p22^PHOX (132-195) (domain or fragment, UniProt P13498 132-195, looked up)
chain: TPIEPKPRERPQIGGTIKQPPSNPPPRPPAEARKKPSEEEAAVAAGGPPGGPQVNPIPVTDEVV
notes: p22^PHOX residues 132-195
binding result: binds
